B1: CLIP-170 S2-CG2-S3 fragment (H1 156-350) (domain or fragment)
chain: MVSSSPSTPSNIPQKPSQPAAKEPSATPPISNLTKTASESISNLSEAGSIKKGERELKIGDRVLVGGTKAGVVRFLGETDFAKGEWCGVELDEPLGKNDGAVAGTRYFQCQPKYGLFAPVHKVTKIGFPSTTPAKAKANAVRRVMATTSASLKRSPSASSLSSMSSVASSVSSRPSRTGLLTETSSRYARKISGT
B2: CLIP-170 CG2 fragment (H1 206-288) (domain or fragment)
chain: KKGERELKIGDRVLVGGTKAGVVRFLGETDFAKGEWCGVELDEPLGKNDGAVAGTRYFQCQPKYGLFAPVHKVTKIGFPSTTP
B3: CLIP-170 CG2-S3 fragment (H1 203-350) (domain or fragment)
chain: GSIKKGERELKIGDRVLVGGTKAGVVRFLGETDFAKGEWCGVELDEPLGKNDGAVAGTRYFQCQPKYGLFAPVHKVTKIGFPSTTPAKAKANAVRRVMATTSASLKRSPSASSLSSMSSVASSVSSRPSRTGLLTETSSRYARKISGT

These binders were tested against filamentous actin (F-actin) (rabbit, UniProt P68135 1-377) (assay: co-sedimentation).
B1 showed a Kd of ~10 µM.
For B2, the Kd was ~90 µM.
For B3, the Kd was 20 µM.

From doi:10.1101/2021.04.27.441644 (bioRxiv, 2021)
